Changes are numbered by the printed parent chain.

Assay [1] addresses T1, human BCMA expressed on the cell surface (human, UniProt Q02223 1-184).
T1 construct: The same molecule is used here for hBCMA-CHO GS cells and for the endogenous BCMA of the myeloma lines; also called Human BCMA CHO-S cell; H929
T1 sequence: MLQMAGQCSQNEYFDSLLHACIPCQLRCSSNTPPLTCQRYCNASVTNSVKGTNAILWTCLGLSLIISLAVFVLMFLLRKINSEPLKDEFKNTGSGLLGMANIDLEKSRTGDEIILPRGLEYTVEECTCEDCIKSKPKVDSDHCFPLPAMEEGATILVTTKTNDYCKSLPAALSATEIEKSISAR
The assay can be described thus: flow cytometry on AMO1 cells. (In flow cytometry, cells or beads pass a laser one at a time.)

The target of assay [2] is T1, human BCMA expressed on the cell surface. Description: flow cytometry on H929 cells.
For assay [3] the target is unchanged. Description: flow cytometry on L363 cells.
The target is the same in assay [4]. The assay can be described thus: flow cytometry on U266 cells.
The target is the same in assay [5]. Description: flow cytometry on MM.1s cells.
Assay [6] shares this target. The assay can be described thus: flow cytometry on RPMI8226 cells.
The target is the same in assay [7]. The assay can be described thus: flow cytometry, 10 nM antibody on H929 cells.
The target is the same in assay [8]. Description: flow cytometry, 10 nM antibody on human BCMA CHO-S cells.
Assay [9] deals with T2, Cynomolgus monkey BCMA-Fc (cynomolgus monkey, UniProt A0A2K5UD97 1-53).
T2 construct: also called BCMA from cynomolgus monkey (mobile phase); not shown: Fc part
The assay can be described thus: BLI (ForteBio Octet), IgG captured on AHC probe, antigen in solution, avid. A general note: BLI is a label-free optical method that tracks binding on a fibre tip over time.

The target of assay [10] is T1, human BCMA expressed on the cell surface. Description: flow cytometry, 10 nM antibody on human BCMA CHO-S cells against CHO-S cells.
In a further assay the target is T3, Human BCMA-IHM (human, UniProt Q02223 1-54).
T3 construct: also called BCMA from human (mobile phase); not shown: 'IHM' is not explained; it may be a tag
T3 sequence (looked up): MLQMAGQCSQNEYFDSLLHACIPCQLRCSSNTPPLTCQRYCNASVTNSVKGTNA
Description: BLI (ForteBio Octet), IgG captured on AHC probe, antigen in solution, monovalent.

The target of the next assay is T4, Human BCMA monomer (human, UniProt Q02223 1-54, limits assumed).
T4 construct: also called BCMA from human (mobile phase)
T4 sequence (looked up): T3 sequence (looked up)
Described as above.

The next assay deals with T5, Mouse BCMA-Fc (mouse, UniProt O88472 1-49, limits assumed).
T5 construct: also called BCMA from mouse (mobile phase); not shown: Fc part
Description: BLI (ForteBio Octet), IgG captured on AHC probe, antigen in solution, avid.

For assay [11], the target named is T1, human BCMA expressed on the cell surface. The assay can be described thus: flow cytometry on hBCMA-CHO-GS cells.
Assay [12] deals with T6, mouse BCMA expressed on CHO GS cells (mouse, UniProt O88472 1-185).
T6 construct: whole, on cells; also called mBCMA-CHO GS; mBCMA-CHO-GS
T6 sequence (looked up): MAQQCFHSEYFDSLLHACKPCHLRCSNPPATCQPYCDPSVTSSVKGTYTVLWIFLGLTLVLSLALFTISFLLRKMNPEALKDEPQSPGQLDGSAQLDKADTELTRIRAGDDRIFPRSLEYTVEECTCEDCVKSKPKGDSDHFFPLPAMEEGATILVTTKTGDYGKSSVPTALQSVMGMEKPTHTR
The assay can be described thus: flow cytometry on mBCMA-CHO-GS cells.

In assay [13] the target is T7, cynomolgus monkey BCMA expressed on CHO GS cells (cynomolgus monkey, UniProt A0A2K5UD97 1-183).
T7 construct: whole, on cells; also called cynoBCMA-CHO GS; cynoBCMA-CHO-GS
The assay can be described thus: flow cytometry on cynoBCMA-CHO-GS cells.

For assay [14], the target named is T8, recombinant human BCMA protein (human, UniProt Q02223 1-54, limits assumed).
T8 construct: The construct is not described
T8 sequence (looked up): T3 sequence (looked up)
The assay can be described thus: SPR (Biacore T200), antibody captured by anti-human Fc on CM5 chip, antigen 1.25-40 nM, 1:1 model. (In general: In SPR one partner is held on a chip, and binding of the other changes the refractive index at the surface.)

Assay [15] concerns the target T9, recombinant cynomolgus monkey BCMA protein (cynomolgus monkey, UniProt A0A2K5UD97 1-53).
T9 construct: The construct is not described
The assay is described as above.

Assay [16] addresses T10, recombinant mouse BCMA protein (mouse, UniProt O88472 1-49, limits assumed).
T10 construct: The construct is not described
T10 chain (looked up): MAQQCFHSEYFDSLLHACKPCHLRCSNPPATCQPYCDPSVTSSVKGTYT
Described as above.

For assay [17], the target named is T11, recombinant rat BCMA protein (rat).
T11 construct: The construct is not described
Described as above.

T2 sequence (A0A2K5UD97 entry or part of it): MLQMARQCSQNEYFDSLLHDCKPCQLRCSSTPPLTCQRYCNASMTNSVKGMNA
T7 sequence (A0A2K5UD97 entry or part of it): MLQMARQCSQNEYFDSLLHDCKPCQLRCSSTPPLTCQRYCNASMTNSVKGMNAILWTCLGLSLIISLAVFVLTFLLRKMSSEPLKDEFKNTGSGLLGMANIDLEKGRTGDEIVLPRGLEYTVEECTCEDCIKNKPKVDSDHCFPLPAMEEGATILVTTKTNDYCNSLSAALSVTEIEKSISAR

B1: ADI-38484 PG antibody (antibody, human IgG1, kappa, V domains shown)
VH: QVQLVQSGAEVKKPGSSVKVSCKASGGTFSNDVISWVRQAPGQGLEWMGVIIPIFGIANYAQKFQGRVTITADESTSTAYMELSSLRSEDTAVYYCARGRGYYSSWLHDIWGQGTMVTVSS
VL: DIQMTQSPSSLSASVGDRVTITCQASQDITNYLNWYQQKPGKAPKLLIYDASNLETGVPSRFSGSGSGTDFTFTISSLQPEDIATYYCQQAFDLITFGGGTKVEIKR
notes: Expressed in HEK293 cells
For the molecule B1, the EC50 in assay [1] was 4.25 nM; in assay [2], around 1.55 nM; in assay [3] it was 0.934 nM; in [4], 2.79 nM; in assay [5], 1.95 nM; in [6] it was 0.428 nM.

B2: anti-BCMA parent antibody ADI-34857 (antibody, V domains shown)
VH: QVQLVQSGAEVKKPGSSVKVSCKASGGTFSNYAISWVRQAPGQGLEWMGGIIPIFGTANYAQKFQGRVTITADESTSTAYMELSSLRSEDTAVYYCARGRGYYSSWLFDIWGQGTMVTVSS
VL: DIQMTQSPSSLSASVGDRVTITCQASQDITNYLNWYQQKPGKAPKLLIYDASNLETGVPSRFSGSGSGTDFTFTISSLQPEDIATYYCQQAFDLITFGGGTKVEIK
notes: Tested as IgG (captured by anti-human Fc probe)
As for B2, in assay [7], the “FON, Fold Over Negative” value came out at 10 fold. Also, the MFI in assay [7] came out at 2280; in [8], 877. Further, the results for the Kd (in assay [9]; with Human BCMA-IHM; in the assay with Human BCMA monomer) were 1.47 nM, 44 nM and 35.9 nM, respectively. Moreover, in assay [10], the “FOB, Fold Over Background” value came to 3 fold.

B3: antibody ADI-38481 (antibody, V domains shown)
VH: B1 VH with H108L
VL: B2 VL
With B3, in [7], the “FON, Fold Over Negative” value was 31 fold. Further, the MFI turned out to be 6660 in assay [7] and 2620 in assay [8]. Besides, the Kd in assay [9] amounted to 0.897 nM; in the assay with Mouse BCMA-Fc, 2.44 nM; with Human BCMA-IHM it was 0.496 nM; with Human BCMA monomer, 0.1 nM. Moreover, in [10], the “FOB, Fold Over Background” value came to 10 fold.

B4: antibody ADI-38484 (antibody, V domains shown)
VH: B1 VH
VL: B2 VL
Take B4: in [7], the “FON, Fold Over Negative” value was found to be 35 fold. The MFI was found to be 7720 in assay [7] and 2720 in [8]. Moreover, the Kd in [9] came out at 1.07 nM; with Mouse BCMA-Fc it was 0.85 nM; in the assay with Human BCMA-IHM it was 0.539 nM; with Human BCMA monomer, 0.0794 nM. For the same molecule, the “FOB, Fold Over Background” value in [10] stood at 11 fold.

B5: anti-BCMA parent antibody ADI-34861 (antibody, V domains shown)
VH: QLQLQESGPGLVKPSETLSLTCTVSGGSISSSSYYWGWIRQPPGKGLEWIGSISYSGSTYYNPSLKSRVTISVDTSKNQFSLKLSSVTAADTAVYYCARDRGDTILDVWGQGTMVTVSS
VL: DIQMTQSPSSLSASVGDRVTITCRASQSISRYLNWYQQKPGKAPKLLIYAASSLQSGVPSRFSGSGSGTDFTLTISSLQPEDFATYYCQQKYFDITFGGGTKVEIK
notes: as for B2
For the molecule B5, in [7], the “FON, Fold Over Negative” value stood at 6 fold. In addition, the values for the MFI in assay [7] and in assay [8] were 1400 and 1000, respectively. Moreover, the Kd in [9] came to 2.11 nM; with Mouse BCMA-Fc, 3.68 nM; in the assay with Human BCMA-IHM, 51.4 nM; in the assay with Human BCMA monomer, 17.3 nM. Also, in assay [10], the “FOB, Fold Over Background” value worked out at 4 fold.

B6: ADI-38497 PG antibody (antibody, V domains shown)
VH: B5 VH with S30V, G37T, Y55I, S56A, T104Q, G110S
VL: DIQMTQSPSSLSASVGDRVTITCRASQSISRYLNWYQQKPGKAPKLLIYAASSLQSGVPSRFSGSGSGTDFTLTISSLQPEDFATYYCQQKYFDITFGGGTKVEIKR
notes: Expressed in HEK293 cells
Regarding B6, the EC50 was 2.43 nM in assay [1]; around 1.71 nM in assay [2]; 5.11 nM in [3]; 1.79 nM in [4]; 1.01 nM in assay [5]; 2.12 nM in [6]. Also, the EC50 in assay [11] was determined as 1.49 nM; in [12], 1.18 nM; in [13] it was 1.69 nM. In addition, the Kd stood at 0.061 nM in [14], 0.0301 nM in [15], 1.77 nM in [16] and 83.1 nM in [17]. Moreover, the koff was 1.76e-05 s⁻¹ in assay [14], 1.03e-05 s⁻¹ in assay [15], 0.000872 s⁻¹ in [16] and 0.0831 s⁻¹ in assay [17]. Besides, the kon stood at 288000 M⁻¹ s⁻¹ in [14], 340000 M⁻¹ s⁻¹ in assay [15], 492000 M⁻¹ s⁻¹ in assay [16] and 1e+06 M⁻¹ s⁻¹ in assay [17].

B7: antibody ADI-38491 (antibody, V domains shown)
VH: B5 VH with S30V, G37T, Y55I, S56A
VL: B5 VL
In the case of B7, the “FON, Fold Over Negative” value in assay [7] was 5 fold. Further, the MFI in assay [7] came out at 1100; in assay [8] it was 996. Besides, the dissociation constant Kd in [9] was found to be 1.27 nM; with Mouse BCMA-Fc it was 3.04 nM; with Human BCMA-IHM, 2.62 nM; with Human BCMA monomer it was 1.02 nM. Moreover, the “FOB, Fold Over Background” value in assay [10] amounted to 4 fold.

B8: antibody ADI-38497 (antibody, V domains shown)
VH: B5 VH with S30V, G37T, Y55I, S56A, T104Q, G110S
VL: B5 VL
For the molecule B8, the “FON, Fold Over Negative” value in [7] is 26 fold. Also, the MFI was 5670 in assay [7] and 2320 in assay [8]. Besides, the Kd in [9] was 0.602 nM; in the assay with Mouse BCMA-Fc, 0.503 nM; in the assay with Human BCMA-IHM, 1.02 nM; in the assay with Human BCMA monomer it was 0.621 nM. In assay [10], the “FOB, Fold Over Background” value came to 8 fold.

In general, EC50 refers to the concentration that produces a half-maximal response. As usually defined, the Kd is the equilibrium constant for the complex coming apart. Usually koff stands for a measure of how fast the partners let go of each other. The term kon denotes the second-order rate constant of association.

(Values after patent US20250034268A1 (Innovent, published 2025).)
